These results are taken from the supplement of paper PMC9112550, “Optimization of the antimicrobial peptide Bac7 by deep mutational scanning” (BMC Biology, 2022).

In the data set the test system is Escherichia coli TOP10. Briefly: shrunken log2 fold change of peptide-encoding DNA abundance (4.5 h post-induction vs induction); higher = less antimicrobial activity (less host growth inhibition). The following applies: time post-induction: 4.5 h; library: site-saturation at positions 5, 18, 19, 20.
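Also: peptides expressed intracellularly from a pBAD plasmid library in pooled LB shake-flask culture, induced with 0.3% L-arabinose, DNA abundance read by NGS, three biological replicates, DESeq2 with apeglm shrinkage.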

Turning to RRIRPRPPRLPRPRPRPYAVPRP, the “shrunken log2 fold change” value was -0.712.

Regarding RRIRFRPPRLPRPRPRPWSKPRP, the “shrunken log2 fold change” value was -0.079.

RRIRFRPPRLPRPRPRPCAAPRP: the “shrunken log2 fold change” value came out at 0.35.

In the case of RRIRGRPPRLPRPRPRPRTPPRP, the “shrunken log2 fold change” value worked out at 1.18.

In the case of RRIRIRPPRLPRPRPRPNDKPRP, the “shrunken log2 fold change” value was -0.647.

Consider RRIRTRPPRLPRPRPRPTVFPRP, for which the “shrunken log2 fold change” value was -0.14.

Turning to RRIRLRPPRLPRPRPRPNFGPRP, the “shrunken log2 fold change” value stood at 0.0635.

RRIRPRPPRLPRPRPRPNWSPRP: the “shrunken log2 fold change” value amounted to 0.0504.

As to RRIRERPPRLPRPRPRPAISPRP, the “shrunken log2 fold change” value is -0.691.

On to RRIRARPPRLPRPRPRPSWWPRP, for which the “shrunken log2 fold change” value is 0.695.

With RRIRGRPPRLPRPRPRPAENPRP, the “shrunken log2 fold change” value worked out at 0.996.

For the sequence RRIRIRPPRLPRPRPRPKCVPRP, the “shrunken log2 fold change” value was -0.328.

Regarding RRIRCRPPRLPRPRPRPKSIPRP, the “shrunken log2 fold change” value is -0.349.

Turning to RRIRCRPPRLPRPRPRPKHQPRP, the “shrunken log2 fold change” value is -0.0465.

In the case of RRIRIRPPRLPRPRPRPSRYPRP, the “shrunken log2 fold change” value was -0.759.

For RRIRMRPPRLPRPRPRPYKDPRP, the “shrunken log2 fold change” value was -0.947.

Take RRIRDRPPRLPRPRPRPMPGPRP: the “shrunken log2 fold change” value came to 0.065.

Consider RRIRVRPPRLPRPRPRPQIIPRP, for which the “shrunken log2 fold change” value is -0.299.

RRIRCRPPRLPRPRPRPQSHPRP: the “shrunken log2 fold change” value is -0.304.

With RRIRLRPPRLPRPRPRPIEQPRP, the “shrunken log2 fold change” value is -0.0092.

As for RRIRRRPPRLPRPRPRPHQLPRP, the “shrunken log2 fold change” value is -0.225.

For RRIRHRPPRLPRPRPRPLTVPRP, the “shrunken log2 fold change” value was -0.0423.

In the case of RRIRARPPRLPRPRPRPVPKPRP, the “shrunken log2 fold change” value was determined as 0.791.

As for RRIRQRPPRLPRPRPRPFSQPRP, the “shrunken log2 fold change” value is 0.0178.

Take RRIRRRPPRLPRPRPRPGQCPRP: the “shrunken log2 fold change” value was 0.22.

Consider RRIRSRPPRLPRPRPRPCWVPRP, for which the “shrunken log2 fold change” value was -0.272.

With RRIRDRPPRLPRPRPRPEQWPRP, the “shrunken log2 fold change” value was -0.0491.

In the case of RRIRPRPPRLPRPRPRPQMYPRP, the “shrunken log2 fold change” value is -0.338.

For the sequence RRIRHRPPRLPRPRPRPPTAPRP, the “shrunken log2 fold change” value was found to be 0.212.

Regarding RRIRGRPPRLPRPRPRPKTMPRP, the “shrunken log2 fold change” value was 0.459.

For RRIRARPPRLPRPRPRPPRMPRP, the “shrunken log2 fold change” value came to 0.949.

Consider RRIRLRPPRLPRPRPRPYSLPRP, for which the “shrunken log2 fold change” value was -0.0459.

RRIRWRPPRLPRPRPRPFIIPRP: the “shrunken log2 fold change” value is -0.617.

For RRIRGRPPRLPRPRPRPFFCPRP, the “shrunken log2 fold change” value came out at 0.471.

In the case of RRIRVRPPRLPRPRPRPPEDPRP, the “shrunken log2 fold change” value was determined as 0.425.

For RRIRYRPPRLPRPRPRPALAPRP, the “shrunken log2 fold change” value is 0.194.

Consider RRIRLRPPRLPRPRPRPGWTPRP, for which the “shrunken log2 fold change” value is 0.208.

On to RRIRRRPPRLPRPRPRPEWQPRP, for which the “shrunken log2 fold change” value is 0.0758.

On to RRIRHRPPRLPRPRPRPNNKPRP, for which the “shrunken log2 fold change” value is -0.75.

For the sequence RRIRQRPPRLPRPRPRPMDNPRP, the “shrunken log2 fold change” value is -0.367.

RRIRCRPPRLPRPRPRPMEYPRP: the “shrunken log2 fold change” value was -0.17.

With RRIRKRPPRLPRPRPRPCLTPRP, the “shrunken log2 fold change” value is -0.0179.

For RRIRYRPPRLPRPRPRPYLPPRP, the “shrunken log2 fold change” value was -0.174.

With RRIRVRPPRLPRPRPRPAYQPRP, the “shrunken log2 fold change” value was -0.264.

As to RRIRLRPPRLPRPRPRPQYDPRP, the “shrunken log2 fold change” value is -0.155.

For the sequence RRIRFRPPRLPRPRPRPYWDPRP, the “shrunken log2 fold change” value is -2.48.

Turning to RRIRKRPPRLPRPRPRPPKIPRP, the “shrunken log2 fold change” value was 0.405.

On to RRIRTRPPRLPRPRPRPDYMPRP, for which the “shrunken log2 fold change” value was -0.687.

Regarding RRIRPRPPRLPRPRPRPAVVPRP, the “shrunken log2 fold change” value stood at 0.197.

For the sequence RRIRFRPPRLPRPRPRPTYEPRP, the “shrunken log2 fold change” value is -0.3.

With RRIRLRPPRLPRPRPRPWMMPRP, the “shrunken log2 fold change” value was 0.00744.

On to RRIRSRPPRLPRPRPRPDDTPRP, for which the “shrunken log2 fold change” value is -0.144.

On to RRIRNRPPRLPRPRPRPFAVPRP, for which the “shrunken log2 fold change” value is -0.398.

As for RRIRERPPRLPRPRPRPLQLPRP, the “shrunken log2 fold change” value was -0.33.

Take RRIRYRPPRLPRPRPRPPECPRP: the “shrunken log2 fold change” value was found to be 0.0463.

Take RRIRVRPPRLPRPRPRPHENPRP: the “shrunken log2 fold change” value was -0.38.

As for RRIRNRPPRLPRPRPRPAHDPRP, the “shrunken log2 fold change” value was determined as 0.055.

Turning to RRIRARPPRLPRPRPRPSNHPRP, the “shrunken log2 fold change” value is -0.089.

Consider RRIRYRPPRLPRPRPRPGCWPRP, for which the “shrunken log2 fold change” value is 0.289.

RRIRHRPPRLPRPRPRPTICPRP: the “shrunken log2 fold change” value was -0.41.

On to RRIRPRPPRLPRPRPRPPKTPRP, for which the “shrunken log2 fold change” value turned out to be 0.246.

For RRIRFRPPRLPRPRPRPTTTPRP, the “shrunken log2 fold change” value stood at 0.212.

As to RRIRTRPPRLPRPRPRPCIEPRP, the “shrunken log2 fold change” value was -0.183.

For RRIRMRPPRLPRPRPRPVSGPRP, the “shrunken log2 fold change” value came to 0.594.

With RRIRMRPPRLPRPRPRPACEPRP, the “shrunken log2 fold change” value was 0.903.

On to RRIRIRPPRLPRPRPRPETFPRP, for which the “shrunken log2 fold change” value is -0.202.

For the sequence RRIRDRPPRLPRPRPRPHWAPRP, the “shrunken log2 fold change” value is -0.00226.

Regarding RRIRARPPRLPRPRPRPHHRPRP, the “shrunken log2 fold change” value stood at 0.00443.

On to RRIRYRPPRLPRPRPRPERSPRP, for which the “shrunken log2 fold change” value is -0.00131.

In the case of RRIRWRPPRLPRPRPRPHKPPRP, the “shrunken log2 fold change” value was -0.119.

In the case of RRIRKRPPRLPRPRPRPVYAPRP, the “shrunken log2 fold change” value was -0.0576.

On to RRIRWRPPRLPRPRPRPQASPRP, for which the “shrunken log2 fold change” value was -0.11.

For the sequence RRIRSRPPRLPRPRPRPWDKPRP, the “shrunken log2 fold change” value was -0.252.

Consider RRIRRRPPRLPRPRPRPYINPRP, for which the “shrunken log2 fold change” value is -0.832.

With RRIRQRPPRLPRPRPRPVQQPRP, the “shrunken log2 fold change” value came out at 0.142.

Consider RRIRVRPPRLPRPRPRPRRFPRP, for which the “shrunken log2 fold change” value is 0.309.

Turning to RRIRTRPPRLPRPRPRPLYWPRP, the “shrunken log2 fold change” value is -0.559.

For the sequence RRIRIRPPRLPRPRPRPTHTPRP, the “shrunken log2 fold change” value is -0.448.

For the sequence RRIRFRPPRLPRPRPRPGCIPRP, the “shrunken log2 fold change” value is -0.241.

With RRIRFRPPRLPRPRPRPNVEPRP, the “shrunken log2 fold change” value was 0.0199.

Regarding RRIRRRPPRLPRPRPRPYKPPRP, the “shrunken log2 fold change” value came to 0.0267.

Take RRIRERPPRLPRPRPRPHGNPRP: the “shrunken log2 fold change” value was -0.0832.

Turning to RRIRGRPPRLPRPRPRPYPTPRP, the “shrunken log2 fold change” value was found to be 0.0422.

Take RRIRCRPPRLPRPRPRPDGIPRP: the “shrunken log2 fold change” value is -0.0101.

As for RRIRERPPRLPRPRPRPCFWPRP, the “shrunken log2 fold change” value was -0.176.

Take RRIRMRPPRLPRPRPRPQWLPRP: the “shrunken log2 fold change” value is 0.351.

For RRIRDRPPRLPRPRPRPYYLPRP, the “shrunken log2 fold change” value is -0.134.

As to RRIRYRPPRLPRPRPRPQEQPRP, the “shrunken log2 fold change” value is -0.0134.

Consider RRIRHRPPRLPRPRPRPWRDPRP, for which the “shrunken log2 fold change” value is -0.154.

As to RRIRDRPPRLPRPRPRPNVQPRP, the “shrunken log2 fold change” value was -0.131.

As for RRIRQRPPRLPRPRPRPPSPPRP, the “shrunken log2 fold change” value came out at 0.426.

Turning to RRIRTRPPRLPRPRPRPFWEPRP, the “shrunken log2 fold change” value is 1.78.

In the case of RRIRERPPRLPRPRPRPVTLPRP, the “shrunken log2 fold change” value was -0.289.

For the sequence RRIRERPPRLPRPRPRPMKAPRP, the “shrunken log2 fold change” value is -0.00245.

RRIRVRPPRLPRPRPRPKDTPRP: the “shrunken log2 fold change” value was -0.038.

As for RRIRQRPPRLPRPRPRPYNMPRP, the “shrunken log2 fold change” value was -0.316.

As to RRIRTRPPRLPRPRPRPIHKPRP, the “shrunken log2 fold change” value is -0.281.

Consider RRIRHRPPRLPRPRPRPYNIPRP, for which the “shrunken log2 fold change” value is -0.244.

On to RRIRDRPPRLPRPRPRPVHEPRP, for which the “shrunken log2 fold change” value was -0.0506.

On to RRIRSRPPRLPRPRPRPATKPRP, for which the “shrunken log2 fold change” value came to 0.161.

For the sequence RRIRARPPRLPRPRPRPQGCPRP, the “shrunken log2 fold change” value was 0.03.

For RRIRQRPPRLPRPRPRPWYGPRP, the “shrunken log2 fold change” value was -0.191.

RRIRLRPPRLPRPRPRPEKMPRP: the “shrunken log2 fold change” value was -0.35.

Take RRIRKRPPRLPRPRPRPEQLPRP: the “shrunken log2 fold change” value was -0.0173.

On to RRIRDRPPRLPRPRPRPQWLPRP, for which the “shrunken log2 fold change” value was determined as 0.24.

As for RRIRNRPPRLPRPRPRPRYRPRP, the “shrunken log2 fold change” value was -0.0876.

Regarding RRIRPRPPRLPRPRPRPGRIPRP, the “shrunken log2 fold change” value amounted to 0.0185.

Consider RRIRVRPPRLPRPRPRPKHIPRP, for which the “shrunken log2 fold change” value is -0.47.

As for RRIRRRPPRLPRPRPRPEWIPRP, the “shrunken log2 fold change” value was 0.361.

Turning to RRIRNRPPRLPRPRPRPAISPRP, the “shrunken log2 fold change” value was -0.128.

For RRIRPRPPRLPRPRPRPCQVPRP, the “shrunken log2 fold change” value is -0.132.

Turning to RRIRFRPPRLPRPRPRPTCIPRP, the “shrunken log2 fold change” value is -0.13.

Turning to RRIRCRPPRLPRPRPRPNQLPRP, the “shrunken log2 fold change” value is -0.345.

As to RRIRERPPRLPRPRPRPLTFPRP, the “shrunken log2 fold change” value is -0.693.

RRIRGRPPRLPRPRPRPMWRPRP: the “shrunken log2 fold change” value came out at 0.899.

As to RRIRFRPPRLPRPRPRPGSFPRP, the “shrunken log2 fold change” value was -0.0983.

Turning to RRIRTRPPRLPRPRPRPFPEPRP, the “shrunken log2 fold change” value is -0.41.

As for RRIRLRPPRLPRPRPRPCGAPRP, the “shrunken log2 fold change” value came to 0.356.

As for RRIRWRPPRLPRPRPRPLTYPRP, the “shrunken log2 fold change” value is -0.423.

On to RRIRLRPPRLPRPRPRPNARPRP, for which the “shrunken log2 fold change” value amounted to 0.1.

Turning to RRIRRRPPRLPRPRPRPSKEPRP, the “shrunken log2 fold change” value turned out to be 0.137.

As to RRIRDRPPRLPRPRPRPDKEPRP, the “shrunken log2 fold change” value was -0.0124.

Regarding RRIRKRPPRLPRPRPRPSSIPRP, the “shrunken log2 fold change” value was -0.0636.

RRIRWRPPRLPRPRPRPCIKPRP: the “shrunken log2 fold change” value came out at 0.0427.

RRIRDRPPRLPRPRPRPMYQPRP: the “shrunken log2 fold change” value was -0.075.
